Tested on: Escherichia coli TOP10
Assay: shrunken log2 fold change of peptide-encoding DNA abundance (4.5 h post-induction vs induction); higher = less antimicrobial activity (less host growth inhibition)
Settings: time post-induction: 4.5 h; library: site-saturation at positions 5, 18, 19, 20
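Note: peptides expressed intracellularly from a pBAD plasmid library in pooled LB shake-flask culture, induced with 0.3% L-arabinose, DNA abundance read by NGS, three biological replicates, DESeq2 with apeglm shrinkage.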

Sequence	shrunken log2 fold change
RRIRQRPPRLPRPRPRPWLKPRP	0.0706
RRIRFRPPRLPRPRPRPWYFPRP	-0.303
RRIRARPPRLPRPRPRPYPDPRP	-0.0126
RRIRYRPPRLPRPRPRPNKWPRP	0.0191
RRIRNRPPRLPRPRPRPHEIPRP	-0.102
RRIRTRPPRLPRPRPRPPIQPRP	0.0675
RRIRHRPPRLPRPRPRPVVAPRP	-0.233
RRIRKRPPRLPRPRPRPPMWPRP	0.297
RRIRWRPPRLPRPRPRPEDFPRP	0.0629
RRIRARPPRLPRPRPRPTKWPRP	0.4
RRIRGRPPRLPRPRPRPNEEPRP	0.621
RRIRGRPPRLPRPRPRPEPWPRP	0.655
RRIRTRPPRLPRPRPRPQIWPRP	0.0741
RRIRKRPPRLPRPRPRPHHCPRP	0.0484
RRIRHRPPRLPRPRPRPDIPPRP	-0.193
RRIRERPPRLPRPRPRPVNYPRP	-0.0115
RRIRPRPPRLPRPRPRPFSYPRP	-0.192
RRIRGRPPRLPRPRPRPYTRPRP	-0.0484
RRIRIRPPRLPRPRPRPNANPRP	-0.252
RRIRDRPPRLPRPRPRPTWKPRP	0.0856
RRIRMRPPRLPRPRPRPSKQPRP	0.495
RRIRLRPPRLPRPRPRPRIRPRP	0.103
RRIRCRPPRLPRPRPRPSVRPRP	-0.362
RRIRCRPPRLPRPRPRPMTPPRP	0.377
RRIRPRPPRLPRPRPRPYESPRP	-0.186

Sequence	shrunken log2 fold change
RRIRQRPPRLPRPRPRPRFWPRP	0.23
RRIRHRPPRLPRPRPRPIYIPRP	-0.156
RRIRVRPPRLPRPRPRPVHEPRP	-0.104
RRIRVRPPRLPRPRPRPWVYPRP	-0.137
RRIRKRPPRLPRPRPRPEWRPRP	0.295
RRIRTRPPRLPRPRPRPEMGPRP	-0.0368
RRIRFRPPRLPRPRPRPAYIPRP	-0.601
RRIRHRPPRLPRPRPRPATHPRP	-0.105
RRIRTRPPRLPRPRPRPPSWPRP	0.345
RRIRERPPRLPRPRPRPYPTPRP	-0.397
RRIRFRPPRLPRPRPRPFVGPRP	-0.0219
RRIRARPPRLPRPRPRPGEKPRP	0.333
RRIRHRPPRLPRPRPRPHTNPRP	-0.672
RRIRLRPPRLPRPRPRPNMAPRP	-0.511
RRIRERPPRLPRPRPRPFASPRP	0.00624
RRIRARPPRLPRPRPRPAPAPRP	0.922
RRIRYRPPRLPRPRPRPHWMPRP	-0.233
RRIRCRPPRLPRPRPRPWCDPRP	-0.211
RRIRERPPRLPRPRPRPERQPRP	-0.0184
RRIRNRPPRLPRPRPRPMSKPRP	-0.197
RRIRERPPRLPRPRPRPDLIPRP	-0.0979
RRIRNRPPRLPRPRPRPSFGPRP	0.00557
RRIRIRPPRLPRPRPRPWSMPRP	-0.00809
RRIRARPPRLPRPRPRPNVMPRP	0.153
RRIRYRPPRLPRPRPRPEFGPRP	0.113

Sequence	shrunken log2 fold change
RRIRFRPPRLPRPRPRPEAWPRP	0.00383
RRIRWRPPRLPRPRPRPMKKPRP	-0.0863
RRIRHRPPRLPRPRPRPTENPRP	-0.418
RRIRPRPPRLPRPRPRPWRWPRP	0.915
RRIRKRPPRLPRPRPRPDKVPRP	0.116
RRIRFRPPRLPRPRPRPSNEPRP	-0.378
RRIRNRPPRLPRPRPRPDDEPRP	-0.00101
RRIRERPPRLPRPRPRPLVSPRP	-0.055
RRIRYRPPRLPRPRPRPFNAPRP	-2.15
RRIRIRPPRLPRPRPRPRIFPRP	-1.13
RRIRYRPPRLPRPRPRPPQRPRP	0.00441
RRIRQRPPRLPRPRPRPQAQPRP	0.0471
RRIRMRPPRLPRPRPRPGQVPRP	0.418
RRIRLRPPRLPRPRPRPNYDPRP	-0.372
RRIRDRPPRLPRPRPRPDIWPRP	0.504
RRIRQRPPRLPRPRPRPTQKPRP	0.0237
RRIRARPPRLPRPRPRPSREPRP	0.816
RRIRWRPPRLPRPRPRPHGEPRP	0.135
RRIRIRPPRLPRPRPRPAHGPRP	0.188
RRIRCRPPRLPRPRPRPRGWPRP	0.605
RRIRNRPPRLPRPRPRPVLKPRP	0.0485
RRIRLRPPRLPRPRPRPRTIPRP	0.0584
RRIRPRPPRLPRPRPRPAGLPRP	0.279
RRIRHRPPRLPRPRPRPFGSPRP	-0.0134
RRIRVRPPRLPRPRPRPGEDPRP	0.0912

Sequence	shrunken log2 fold change
RRIRFRPPRLPRPRPRPFMDPRP	-0.00928
RRIRRRPPRLPRPRPRPGLSPRP	-0.0549
RRIRDRPPRLPRPRPRPIGCPRP	0.242
RRIRCRPPRLPRPRPRPHYVPRP	-0.78
RRIRPRPPRLPRPRPRPLWFPRP	0.173
RRIRRRPPRLPRPRPRPDISPRP	0.0322
RRIRDRPPRLPRPRPRPHHLPRP	-0.0476
RRIRSRPPRLPRPRPRPVWPPRP	0.434
RRIRARPPRLPRPRPRPDDVPRP	0.0875
RRIRLRPPRLPRPRPRPTCDPRP	-0.202
RRIRERPPRLPRPRPRPYDQPRP	-0.518
RRIRQRPPRLPRPRPRPHKLPRP	-0.544
RRIRLRPPRLPRPRPRPLNCPRP	-0.156
RRIRIRPPRLPRPRPRPASMPRP	-0.281
RRIRHRPPRLPRPRPRPSHQPRP	-0.178
RRIRMRPPRLPRPRPRPNRCPRP	0.172
RRIRSRPPRLPRPRPRPLMAPRP	0.000235
RRIRLRPPRLPRPRPRPKLQPRP	0.356
RRIRSRPPRLPRPRPRPKMVPRP	-0.309
RRIRRRPPRLPRPRPRPNATPRP	0.703
RRIRLRPPRLPRPRPRPIQAPRP	0.0789
RRIRERPPRLPRPRPRPHELPRP	-0.0556
RRIRMRPPRLPRPRPRPAGPPRP	0.484
RRIRRRPPRLPRPRPRPERPPRP	0.991
RRIRDRPPRLPRPRPRPLIRPRP	-0.0502

Sequence	shrunken log2 fold change
RRIRWRPPRLPRPRPRPGFEPRP	0.427
RRIRPRPPRLPRPRPRPESLPRP	-0.0197
RRIRCRPPRLPRPRPRPAQLPRP	-0.169
RRIRQRPPRLPRPRPRPNPYPRP	-0.0811
RRIRHRPPRLPRPRPRPHFKPRP	-0.455
RRIRNRPPRLPRPRPRPQDQPRP	-0.222
RRIRFRPPRLPRPRPRPTSSPRP	-0.0359
RRIRNRPPRLPRPRPRPVGLPRP	0.0874
RRIRIRPPRLPRPRPRPEIPPRP	-0.0249
RRIRQRPPRLPRPRPRPYCDPRP	-0.431
RRIRSRPPRLPRPRPRPCRYPRP	-0.424
RRIRYRPPRLPRPRPRPDVKPRP	-0.294
RRIRHRPPRLPRPRPRPPGIPRP	0.142
RRIRFRPPRLPRPRPRPKVYPRP	-0.382
RRIRMRPPRLPRPRPRPEVWPRP	1.13
RRIRTRPPRLPRPRPRPPMTPRP	0.172
RRIRGRPPRLPRPRPRPQPRPRP	0.9
RRIRPRPPRLPRPRPRPSAWPRP	0.368
RRIRERPPRLPRPRPRPSANPRP	-0.35
RRIRTRPPRLPRPRPRPGTHPRP	-0.0792
RRIRARPPRLPRPRPRPSWRPRP	0.263
RRIRSRPPRLPRPRPRPMPCPRP	0.216
RRIRTRPPRLPRPRPRPDEGPRP	-0.0183
RRIRTRPPRLPRPRPRPNEWPRP	-0.0827
RRIRQRPPRLPRPRPRPGRPPRP	0.121
